Data: patent US20240261333A1 (published 2024)

Experiments:
TAF15 = molecular target: T1, TAF15 (human, UniProt Q92804-2 1-589, limits assumed); experiment: co-IP with mouse anti-FLAG from lysate of cells overexpressing N-FLAG B3GNT2, then mass spectrometry
T1 construct: Identified by mass spectrometry in the co-IP; also called NP_003478.1 (+1)
Protocol: (§1) Cells were plated in 10-cm cell culture dishes and grown to 60-80% confluency. For each condition, two biological replicates were harvested for co-IP. Cells were washed with PBS and 4 mL of lysis buffer (20 mM HEPES, 1% Triton X-100, 150 mM NaCl, 1 mM EDTA, and 10% glycerol) containing protease inhibitor cocktail was added. Cells were scraped and lysate was incubated at 4° C. under rotary agitation for 1 h. Lysate was centrifuged at 14,000×g for 10 min at 4° C. Supernatant was transferred to a new tube and an aliquot was taken as the input. […] For Western blots, 10 μg/mL Chicken Anti-FLAG (Aves labs ET-DY100) and IgY control (R&D Systems AB-101-C) antibodies were biotinylated (Thermo Fisher Scientific 90407) and added to the respective conditions. Lysates with antibodies were incubated at 4° C. under rotary agitation overnight. For each mL of lysate, 50 μL of Pierce Protein A/G Magnetic Beads (Mass spectrometry; Thermo Fisher Scientific 88803) or Pierce Streptavidin Magnetic Beads (Western blot; Thermo Fisher Scientific 88817) was washed twice with lysis buffer. Lysates with antibodies were added to the beads and incubated at 4° C. under rotary agitation for 4 h. Beads were washed with lysis buffer 3 times and resuspended in lysis buffer for storage.
(§2) Magnetic beads were resuspended in 100 mM Tris pH 7.8, reduced, alkylated and digested with trypsin at 37° ° C. overnight. This solution was subjected to solid phase extraction to concentrate the peptides and remove unwanted reagents followed by injection onto a Shimadzu HPLC with fraction collector. Eight fractions were collected and after concentration were injected on a Waters NanoAcquity HPLC equipped with a self-packed Aeris 3 μm C18 analytical column 0.075 mm by 20 cm, (Phenomenex). Peptides were eluted using standard reverse-phase gradients. The effluent from the column was analyzed using a Thermo Orbitrap Elite mass spectrometer (nanospray configuration) operated in a data dependent manner for 54 minutes. The resulting fragmentation spectra were correlated against the known database using Proteome Discover 1.4 (Thermo Fisher Scientific).

VIM = molecular target: T2, VIM (human, UniProt P08670 2-466); experiment: as above
T2 construct: Identified by mass spectrometry in the co-IP; also called NP_003371.2
Protocol: as §1, §2

IPO7 = molecular target: T3, IPO7 (human, UniProt O95373 1-1038); experiment: anti-FLAG co-IP from lysate of N-FLAG B3GNT2 cells, mass spectrometry
T3 construct: also called NP_006382.1
Protocol: as §1, §2

IFI16 = molecular target: T4, IFI16 (human, UniProt Q16666-2 1-729, limits assumed); experiment: as above
T4 construct: also called NP_001193496.1 (+3)
T4 sequence (looked up): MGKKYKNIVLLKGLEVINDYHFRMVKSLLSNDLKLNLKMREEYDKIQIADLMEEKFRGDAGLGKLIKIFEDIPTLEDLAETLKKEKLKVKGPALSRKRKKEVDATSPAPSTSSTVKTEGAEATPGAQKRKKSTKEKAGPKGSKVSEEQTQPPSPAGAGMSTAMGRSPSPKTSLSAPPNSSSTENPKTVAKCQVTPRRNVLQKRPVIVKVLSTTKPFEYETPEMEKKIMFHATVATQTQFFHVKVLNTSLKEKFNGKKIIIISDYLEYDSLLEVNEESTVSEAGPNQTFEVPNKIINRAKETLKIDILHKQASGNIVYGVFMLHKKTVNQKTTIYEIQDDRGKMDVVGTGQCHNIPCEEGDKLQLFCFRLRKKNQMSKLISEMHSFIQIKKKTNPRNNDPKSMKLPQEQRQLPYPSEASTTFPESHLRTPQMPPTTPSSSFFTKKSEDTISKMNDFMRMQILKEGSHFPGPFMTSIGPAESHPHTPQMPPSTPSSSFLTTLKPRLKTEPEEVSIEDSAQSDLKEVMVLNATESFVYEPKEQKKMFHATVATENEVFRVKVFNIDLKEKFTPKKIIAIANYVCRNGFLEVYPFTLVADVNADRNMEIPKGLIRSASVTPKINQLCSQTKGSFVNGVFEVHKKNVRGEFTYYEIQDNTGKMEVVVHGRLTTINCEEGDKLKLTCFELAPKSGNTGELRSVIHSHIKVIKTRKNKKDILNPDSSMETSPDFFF
Protocol: as §1, §2

T3 sequence (O95373 whole entry): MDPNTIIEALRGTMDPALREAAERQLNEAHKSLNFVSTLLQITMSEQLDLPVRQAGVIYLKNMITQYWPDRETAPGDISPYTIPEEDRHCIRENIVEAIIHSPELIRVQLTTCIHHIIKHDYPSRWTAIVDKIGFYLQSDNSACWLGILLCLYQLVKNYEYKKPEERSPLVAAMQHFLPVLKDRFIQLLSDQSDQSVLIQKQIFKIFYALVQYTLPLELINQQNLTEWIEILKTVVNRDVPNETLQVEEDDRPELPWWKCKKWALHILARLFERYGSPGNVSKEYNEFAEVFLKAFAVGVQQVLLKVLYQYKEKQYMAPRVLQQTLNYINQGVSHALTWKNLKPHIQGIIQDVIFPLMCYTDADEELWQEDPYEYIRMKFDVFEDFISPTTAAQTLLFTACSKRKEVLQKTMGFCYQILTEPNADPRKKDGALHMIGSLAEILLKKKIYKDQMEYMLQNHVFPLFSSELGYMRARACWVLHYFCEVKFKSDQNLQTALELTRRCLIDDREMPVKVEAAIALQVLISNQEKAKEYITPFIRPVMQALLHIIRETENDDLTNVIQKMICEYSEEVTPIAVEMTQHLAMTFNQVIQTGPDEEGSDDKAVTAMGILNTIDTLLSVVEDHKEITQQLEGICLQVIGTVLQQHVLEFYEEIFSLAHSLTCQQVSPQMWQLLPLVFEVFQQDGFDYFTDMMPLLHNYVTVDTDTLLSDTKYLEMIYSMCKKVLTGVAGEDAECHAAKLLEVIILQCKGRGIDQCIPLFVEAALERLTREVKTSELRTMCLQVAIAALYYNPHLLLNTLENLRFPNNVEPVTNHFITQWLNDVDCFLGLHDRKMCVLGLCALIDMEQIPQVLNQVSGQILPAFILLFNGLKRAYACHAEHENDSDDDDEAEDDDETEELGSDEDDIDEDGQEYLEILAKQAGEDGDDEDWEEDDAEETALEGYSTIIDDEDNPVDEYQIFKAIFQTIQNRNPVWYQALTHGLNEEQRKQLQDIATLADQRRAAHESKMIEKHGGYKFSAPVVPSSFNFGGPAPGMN
T2 sequence (P08670 2-466 limits assumed): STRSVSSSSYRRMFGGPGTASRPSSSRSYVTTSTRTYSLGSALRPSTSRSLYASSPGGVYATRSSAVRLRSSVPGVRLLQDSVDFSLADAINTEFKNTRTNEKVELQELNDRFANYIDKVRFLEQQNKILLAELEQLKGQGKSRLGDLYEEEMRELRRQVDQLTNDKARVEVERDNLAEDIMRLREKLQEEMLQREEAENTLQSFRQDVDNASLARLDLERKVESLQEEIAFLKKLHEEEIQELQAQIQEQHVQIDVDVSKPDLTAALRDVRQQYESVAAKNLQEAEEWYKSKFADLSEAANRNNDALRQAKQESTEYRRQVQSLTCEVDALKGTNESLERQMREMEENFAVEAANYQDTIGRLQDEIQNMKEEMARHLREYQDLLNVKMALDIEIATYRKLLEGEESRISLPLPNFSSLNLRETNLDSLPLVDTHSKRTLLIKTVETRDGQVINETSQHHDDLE
T1 sequence (Q92804 other isoform, or with tags, fused parts or gaps limits assumed): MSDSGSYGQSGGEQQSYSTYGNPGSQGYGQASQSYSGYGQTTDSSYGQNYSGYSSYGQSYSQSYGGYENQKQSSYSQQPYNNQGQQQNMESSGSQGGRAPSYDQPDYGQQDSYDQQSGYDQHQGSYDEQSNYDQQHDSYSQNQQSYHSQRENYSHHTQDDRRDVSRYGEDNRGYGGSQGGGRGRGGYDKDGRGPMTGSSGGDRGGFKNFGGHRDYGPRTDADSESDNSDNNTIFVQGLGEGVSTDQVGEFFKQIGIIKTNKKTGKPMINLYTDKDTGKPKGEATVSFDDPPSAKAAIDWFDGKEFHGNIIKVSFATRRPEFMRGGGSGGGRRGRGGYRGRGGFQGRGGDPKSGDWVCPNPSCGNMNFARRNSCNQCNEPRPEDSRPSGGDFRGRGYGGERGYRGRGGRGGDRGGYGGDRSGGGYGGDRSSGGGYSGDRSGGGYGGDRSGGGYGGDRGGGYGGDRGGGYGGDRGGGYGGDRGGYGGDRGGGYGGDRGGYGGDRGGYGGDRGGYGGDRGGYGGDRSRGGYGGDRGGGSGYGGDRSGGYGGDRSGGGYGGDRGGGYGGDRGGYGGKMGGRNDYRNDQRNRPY

Row | Binder | co-IP mass spectrometry count (N-term FLAG) (TAF15) | co-IP mass spectrometry count (N-term FLAG) (VIM) | co-IP mass spectrometry count (IPO7) | co-IP mass spectrometry count (IFI16)
1 | N-terminal FLAG tagged B3GNT2 (enzyme, human, UniProt Q9NY97 1-397, looked up, FLAG-tagged ORF overexpressed in A375 cells; bait of the co-IP with mouse anti-FLAG; also called N-FLAG B3GNT2; N-term FLAG; not shown: N-terminal FLAG tag) MSVGRRRIKLLGILMMANVFIYFIMEVSKSSSQEKNGKGEVIIPKEKFWKISTPPEAYWNREQEKLNRQYNPILSMLTNQTGEAGRLSNISHLNYCEPDLRVTSVVTGFNNLPDRFKDFLLYLRCRNYSLLIDQPDKCAKKPFLLLAIKSLTPHFARRQAIRESWGQESNAGNQTVVRVFLLGQTPPEDNHPDLSDMLKFESEKHQDILMWNYRDTFFNLSLKEVLFLRWVSTSCPDTEFVFKGDDDVFVNTHHILNYLNSLSKTKAKDLFIGDVIHNAGPHRDKKLKYYIPEVVYSGLYPPYAGGGGFLYSGHLALRLYHITDQVHLYPIDDVYTGMCLQKLGLVPEKHKGFRTFDIEEKNKNNICSYVDLMLVHSRKPQEMIDIWSQLQSAHLKC | 5 | 402 |  | 
2 | N-terminal FLAG tagged B3GNT2 (enzyme, human, UniProt Q9NY97 1-397, looked up, Bait of the co-IP; pulled down from cell lysate with mouse anti-FLAG antibody; also called N-FLAG B3GNT2; N-term FLAG; not shown: N-terminal FLAG tag) MSVGRRRIKLLGILMMANVFIYFIMEVSKSSSQEKNGKGEVIIPKEKFWKISTPPEAYWNREQEKLNRQYNPILSMLTNQTGEAGRLSNISHLNYCEPDLRVTSVVTGFNNLPDRFKDFLLYLRCRNYSLLIDQPDKCAKKPFLLLAIKSLTPHFARRQAIRESWGQESNAGNQTVVRVFLLGQTPPEDNHPDLSDMLKFESEKHQDILMWNYRDTFFNLSLKEVLFLRWVSTSCPDTEFVFKGDDDVFVNTHHILNYLNSLSKTKAKDLFIGDVIHNAGPHRDKKLKYYIPEVVYSGLYPPYAGGGGFLYSGHLALRLYHITDQVHLYPIDDVYTGMCLQKLGLVPEKHKGFRTFDIEEKNKNNICSYVDLMLVHSRKPQEMIDIWSQLQSAHLKC |  |  | 0 | 0
